B1: Hairpin Ribozyme (parent)
chain: GUCCUCUUUCACGUGCGCGUGAAAGAGAGAAGUGAACCAGAGAAACACACGUUGUGGUAUAUUACCUGGUA

Variants of: B1
Test: self-cleavage, relative activity (ratio to wild type); higher = more cleavage; co-transcriptional
With GUCCUCUUUGACGUGCGCGCGAAAGAGAGAAGUGAACCAGAGAAACACACGUUGUGGUAUAUUACCUGGUA [C10G U20C] the self-cleavage was 0.647.
Variant GUCCUCUUUGACGUGCGCGGGAAAGAGAGAAGUGAACCAGAGAAACACACGUUGUGGUAUAUUACCUGGUA [C10G U20G] has a self-cleavage of 0.561.
Work on GUCCUCUUUGACGUGCGCGUGAAAGAGAGAAGUGAACCAGAGAAACCCACGUUGUGGUAUAUUACCUGGUA [C10G A47C] yielded a self-cleavage of 0.307.
Work on GUCCUCUUUGACGUGCGCGUGAAAGAGAGAAGUGAACCAGAGAAACACACGUUAUGGUAUAUUACCUGGUA [C10G G54A] yielded a self-cleavage of 0.375.
Variant GUCCUCUUUGACGUGCGCGUGAAAGAGAGAAGUGAACCAGAGAAACACACGUUGUGGAAUAUUACCUGGUA [C10G U58A] has a self-cleavage of 0.591.
In the case of GUCCUCUUUUACGUGCGCGUGAAAGAGAGAAGUGAACCAGAGACACACACGUUGUGGUAUAUUACCUGGUA [C10U A44C], the self-cleavage is reported as 0.135.
GUCCUCUUUGACGUGCGCGUGAAAGAGAGAAGUGAACCAGACAAACACACGUUGUGGUAUAUUACCUGGUA [C10G G42C] gave a self-cleavage of 0.307.
Work on GUCCUCUUUGACGUGCGCGUGAAAGAGAGAAGUGAACCAGAUAAACACACGUUGUGGUAUAUUACCUGGUA [C10G G42U] yielded a self-cleavage of 0.214.
In the case of GUCCUCUUUUACGUGCGCGUGAAAGAGGGAAGUGAACCAGAGAAACACACGUUGUGGUAUAUUACCUGGUA [C10U A28G], the self-cleavage is reported as 0.822.
GUCCUCUUUGACGUGCGCGUGAAAGAGAGAAGUGAACCAGAGAAACACACGUUGUGGUAUAUUACCUGGAA [C10G U70A] gave a self-cleavage of 0.592.
In the case of GUCCUCUUUGACGUGCGCGUGAAAGAGAGAAGUGAACCAGAGAAACACACGUUGUGGUAUAUUACCUGGCA [C10G U70C], the self-cleavage is reported as 0.93.
Variant GUCCUCUUUGACGUGCGCGUGAAAGAGAGAAGUGAACCAGAGAAACACACGUUGUGAUAUAUUACCUGGUA [C10G G57A] has a self-cleavage of 0.0913.
For GUCCUCUUUGACGUGCGCGUGAAAGAGAGAAGUGAACCAGAGAAACACACGUUGUGCUAUAUUACCUGGUA [C10G G57C], the self-cleavage was 0.124.
GUCCUCUUUGACGUGCGCGUGAAAGAGAGAAGGGAACCAGAGAAACACACGUUGUGGUAUAUUACCUGGUA [C10G U33G] showed a self-cleavage of 0.25.
In the case of GUCCUCUUUGACGUGCGCGUGAAAGAGAGAAGCGAACCAGAGAAACACACGUUGUGGUAUAUUACCUGGUA [C10G U33C], the self-cleavage is reported as 0.0987.
GUCCUCUUUUACGUGCGCGUGAAAGAGAGACGUGAACCAGAGAAACACACGUUGUGGUAUAUUACCUGGUA [C10U A31C] showed a self-cleavage of 0.135.
In the case of GUCCUCUUUGACGUGCGCGUGAAAGAGAGAAGUGAACCAGAGAAACACACGUUGUGGUAUAUUAACUGGUA [C10G C65A], the self-cleavage is reported as 0.746.
GUCCUCUUUGACGUGCGCGUGAAAGAGAGAAGUGAACUAGAGAAACACACGUUGUGGUAUAUUACCUGGUA [C10G C38U] showed a self-cleavage of 0.435.
GUCCUCUUUGACGUGCGCGUGAAAGAGAGAAGUGAACGAGAGAAACACACGUUGUGGUAUAUUACCUGGUA [C10G C38G] gave a self-cleavage of 0.133.
GUCCUCUUUGACGUGCGCGUGAAAGAGAGAAGUGAACCAGAGAAACACACCUUGUGGUAUAUUACCUGGUA [C10G G51C] showed a self-cleavage of 0.585.
GUCCUCUUUGACCUGCGCGUGAAAGAGAGAAGUGAACCAGAGAAACACACGUUGUGGUAUAUUACCUGGUA [C10G G13C] showed a self-cleavage of 0.401.
GUCCUCUUUGACGUGCGCGUGAAAGAGAGAAGUGAACCAGAGAAACAGACGUUGUGGUAUAUUACCUGGUA [C10G C48G] showed a self-cleavage of 0.0825.
For GUCCUCUUUUCCGUGCGCGUGAAAGAGAGAAGUGAACCAGAGAAACACACGUUGUGGUAUAUUACCUGGUA [C10U A11C], the self-cleavage was 0.696.
For GUCCUCUUUGACGUGCGCCUGAAAGAGAGAAGUGAACCAGAGAAACACACGUUGUGGUAUAUUACCUGGUA [C10G G19C], the self-cleavage was 0.539.
GUCCUCUUUGACGUGCGCGUGAAAGAGAGAAGUGAACCAGAGAAACACACGUUGUGGUGUAUUACCUGGUA [C10G A59G] gave a self-cleavage of 0.171.
In the case of GUCCUCUUUGACGUGCGCGUGAAAGAGAGAAGUGAACCAGAGAAACACACGUUGUGGUCUAUUACCUGGUA [C10G A59C], the self-cleavage is reported as 0.127.
Work on GUCCUCUUUGACGUGCGCGUGAAAGAGAGAAGUGAACCAGAGAAACACACGUUGGGGUAUAUUACCUGGUA [C10G U55G] yielded a self-cleavage of 0.195.
In the case of GUCCUCUUUGACGUGCGCGUGAAAGAGAGAAGUGAACCAGAGAAACACACGUUGAGGUAUAUUACCUGGUA [C10G U55A], the self-cleavage is reported as 0.316.
Work on GUCCUCUUUGACGUGCGCGUGAAAGAGAGAAGUGAACCAGAGAAACACACGUUGUGGUAUAUUACCGGGUA [C10G U67G] yielded a self-cleavage of 0.205.
For GUCCUCUUUGACGUGCGCGUGAAAGAGAGAAGUGAACCAGAGAAACACACGGUGUGGUAUAUUACCUGGUA [C10G U52G], the self-cleavage was 0.631.
With GUCCUCUUUUACGUGCGCGUGAAAGCGAGAAGUGAACCAGAGAAACACACGUUGUGGUAUAUUACCUGGUA [C10U A26C] the self-cleavage was 0.687.
GUCCUCUUUGACGUGCGCGUGAAAGAGAGAAGUGAACCAGAGAAACACACGUUGUGGUAUAUUACCUAGUA [C10G G68A] gave a self-cleavage of 0.172.
For GUCCUCUUUGACGUGCGCGUGAAAGAGAGAAGUGAACCAGAGAAACACACGUUGUGGUAUAUUACCUUGUA [C10G G68U], the self-cleavage was 0.148.
In the case of GUCCUCUUUUACGUGCGCGUGAAAGAGAGAAGUGAGCCAGAGAAACACACGUUGUGGUAUAUUACCUGGUA [C10U A36G], the self-cleavage is reported as 0.648.
For GUCCUCUUUUACGUGCGCGUGAAAGAGAGAAGUGACCCAGAGAAACACACGUUGUGGUAUAUUACCUGGUA [C10U A36C], the self-cleavage was 0.662.
Work on GUCCUCUUUGACGGGCGCGUGAAAGAGAGAAGUGAACCAGAGAAACACACGUUGUGGUAUAUUACCUGGUA [C10G U14G] yielded a self-cleavage of 0.378.
For GUCCUCUUUGACGCGCGCGUGAAAGAGAGAAGUGAACCAGAGAAACACACGUUGUGGUAUAUUACCUGGUA [C10G U14C], the self-cleavage was 0.573.
In the case of GUCCUCUUUGACGAGCGCGUGAAAGAGAGAAGUGAACCAGAGAAACACACGUUGUGGUAUAUUACCUGGUA [C10G U14A], the self-cleavage is reported as 0.635.

Source: the RNAGym collection of RNA variant scans (doi:10.7554/elife.80360)
